The text below walks through data of paper PMC6155775, “Role of Quinone Reductase 2 in the Antimalarial Properties of Indolone-Type Derivatives” (Molecules : A Journal of Synthetic Chemistry and Natural …, 2017).

Substrate in the data set: CC1=CC(=O)c2ccccc2C1=O
The data set is described as follows: enzyme kinetics (KM) by BNAH fluorescence decrease; reference substrate. In kind it is biochemical, Homo sapiens. The note with it: FAD; pH 8.5; 37.0 °C.

B1: human quinone reductase 2 (hQR2) (Homo sapiens) (protein)
chain: MAGKKVLIVYAHQEPKSFNGSLKNVAVDELSRQGCTVTVSDLYAMNLEPRATDKDITGTLSNPEVFNYGVETHEAYKQRSLASDITDEQKKVREADLVIFQFPLYWFSVPAILKGWMDRVLCQGFAFDIPGFYDSGLLQGKLALLSVTTGGTAEMYTKTGVNGDSRYFLWPLQHGTLHFCGFKVLAPQISFAPEIASEEERKGMVAAWSQRLQTIWKEEPIPCTAHWHFGQ
notes: 6his-hQR2
For B1, the Km is 10 ± 1 µM.

In general, Km refers to the concentration of substrate that gives half-maximal velocity.
